Laboratory results taken from article PMC2897767, “Two Distinct Mechanisms for Actin Capping Protein Regulation—Steric and Allosteric Inhibition” (PLoS Biology, 2010).
Like-named read-outs stand apart in the source and are kept apart here. One block for each molecule: values may come before it.

Tests used:
[1] = test system: CP; experiment: SPR binding of CP to immobilized GST-CD2AP / GST-CARMIL fragments; set-up: species or system chicken; details: 20°C; for kon / koff: SPR (Biacore), CP perfused, 1:1 binding model; for kon: GST-fusion immobilized via anti-GST antibody on CM5 chip, 50 mM KCl, 1 mM MgCl2, 0.005% Tween-20, 10 mM imidazole pH 7.0; for koff: GST-fusion immobilized
Protocol: (§1) Expression vectors for chicken CPfull and CPΔβC were constructed in pETDuet-1 by PCR, using pET-3d/CP [38] as the template. CP was expressed in E. coli Rosetta2 (DE3) and was purified as described. V-1 (human), expressed in E. coli Rosetta2 (DE3) as a GST-fusion protein, was affinity-purified and the tag was removed. Synthetic peptides derived from CARMIL proteins were obtained from Invitrogen. For crystallization, CP was incubated with a 1.2–2.0-fold molar excess of V-1 or CARMIL peptides at 4°C for 2 h, followed by gel filtration to purify the complexes. Expression vectors for the GST-CA constructs were prepared from the mouse cDNA clone as previously described. Vectors for GST-CD fragments were constructed by PCR cloning using a human whole brain cDNA library (Clontech) as the template. Amplified DNA fragments were cloned into pGEX-6P-1. GST-fusion proteins were expressed in E. coli Rosetta2 (DE3) cells and affinity-purified using glutathione sepharose resin. Mutations were introduced using a Quikchange mutagenesis kit (Stratagene). Actin was prepared from rabbit skeletal muscle, as previously described, and was further purified by gel filtration chromatography. Pyrene labeled-actin was prepared as described. Spectrin-actin seeds were prepared from rabbit red blood cells, as previously described.
(§2) The binding affinities of CP for V-1 or CARMIL proteins were evaluated by surface plasmon resonance measurements with Biacore 3000 or Biacore 2000 instruments (GE Healthcare). GST-fusion proteins (GST-V-1, GST-CA, or GST-CD) were immobilized onto a CM5 sensor chip up to 200 RU (response units; 200 pg/mm^2) via anti-GST antibodies. CP at various concentrations in running buffer (50 mM KCl, 1 mM MgCl2, 0.005% Tween-20, 10 mM imidazole, pH 7.0) was perfused over the chip at 20°C, at a flow rate of 20 µl/min. Response curves were obtained by subtracting the background signal generated simultaneously on a control flow cell with immobilized GST. To measure the effect of the CARMIL peptides on the facilitation of CP/V-1 dissociation (in Figure 11C and 11D), we used the “co-inject” mode for successive injections of the peptides followed by CP. Kinetic parameters were determined by fitting the sensorgrams to a simple 1∶1 binding model, using the Bia-evaluation software (GE Healthcare). KD values were obtained from the kinetic rate constants. […] KD values were evaluated by plotting these values against the concentrations of CP.

[2] = test system: CP; details: estimated, cited from earlier work
Excerpt: How do CARMIL proteins inhibit the capping activity of CP in an allosteric manner? […] We propose that CARMIL proteins inhibit CP in a similar manner (Figure 13C); CARMIL proteins limit the conformational distribution of CP to ...

[3] = molecular target: CP; details: ref Fujiwara, et al.; cited from earlier work
Excerpt: We tested the importance of the C-terminal flanking regions of the CP-binding motif using a binding assay (Table 2; the constructs used for the measurement are shown in Figure 9B). […] In the second CP binding site in the CP/CBR115 complex, human CARMIL Val1034 (corresponding to mouse CA1038), which is missing in GST-76, forms multiple interactions with CP α-subunit residues. Thus, the absence of this key valine in GST-CA76 results in the lower CP binding affinity compared with the full active CARMIL fragments.

[4] = test system: CP (β) D44N; experiment: SPR binding of mutant CP to immobilized GST-CD56 / GST-CA92; set-up: species or system chicken; details: analyte CP (β) D44N, 20°C, pH 7.0
Protocol: as §1, §2

[5] = test system: CP (β) Y64F; experiment: as above; set-up: species or system chicken; details: analyte CP (β) Y64F, 20°C, pH 7.0
Protocol: as §1, §2

[6] = test system: CP (β) D63N; experiment: as above; set-up: species or system chicken; details: analyte CP (β) D63N, 20°C, pH 7.0
Protocol: as §1, §2

[7] = test system: CP (β) D67N; experiment: as above; set-up: species or system chicken; details: analyte CP (β) D67N, 20°C, pH 7.0
Protocol: as §1, §2

[8] = test system: CPfull (wild type CP); experiment: Actin polymerization assay (barbed end elongation from spectrin-actin seeds): inhibition of CP capping; format: biochemical, chicken; details: actin 1.2 µM (5% pyrene-labeled), 7.2 nM CPfull, 25°C (Figure 9F)
Protocol: (A) Superposition of the C-termini of the peptides. CD Phe505 and CK Arg169 are shown as stick models. The conserved proline at the C-terminus of the motifs is shown as balls. (B) CD2AP constructs used for biochemical assays. (C) CARMIL constructs used for biochemical assays. […] Actin (1.2 µM, 5% pyrene-labeled) was polymerized from spectrin-actin seeds in the presence of 3.6 nM CPfull (D), 10 nM CPβΔC (E), or 7.2 nM CPfull (F) with various concentrations of CARMIL peptides or GST-CA constructs.
The barbed end elongation assay from spectrin-actin seeds was performed essentially as previously described. Briefly, G-actin was stored in G-buffer (0.2 mM CaCl2, 0.2 mM ATP, 0.5 mM DTT and 10 mM imidazole, pH 7.0). At 90 s prior to polymerization, the Ca^2+ was replaced with Mg^2+, by the addition of 1/10 volume of 10 mM EGTA and 1 mM MgCl2 to G-actin. […] Actin polymerization was measured by monitoring the pyrene-actin fluorescence (excitation 370 nm; emission 410 nm) at 25°C.
(0.16 MB TIF) Click here for additional data file.

B2: CARMIL: multi-domain protein (∼150 kDa) that binds CP and uncaps filaments (protein, UniProt Q6EDY6 1-1374, looked up)
F-actin-uncapping protein …: MTDESSDVPRELMESIKDVIGRKIKISVKKKVKLEVKGDRVENKVLVLTSCRAFLLSARIPSKLELTFSYLEIHGVICHKPAQMVVETEKCNMSMKMVSPEDVSEVLAHIGTCLRRIFPGLSPLRIMKKVSMEPSERLASLQALWDSQTLAEPGPCGGFSQMYACVCDWLGFSYKEEVQWDVDTIYLTQDTRELNLQDFSHLEHRDLIPIIAALEYNQWFTKLSSKDLKLSTDVCEQILRVVSRSNRLEELVLENAGLRIDFAQKLAGALAHNPNSGLHTINLAGNSLEDRGVSSLSIQFAKLPKGLKHLNLSKTSLSPKGVNSLCQSLSANPLTASTLTHLDLSGNALRGDDLSHMYNFLAQPNTIVHLDLSNTECSLEMVCSALLRGCLQCLAVLNLSRSVFSHRKGKEVPPSFKQFFSSSLALIQINLSGTKLSPEPLKALLLGLACNHSLKGVSLDLSNCELGHCLRSGGAQVLEGCIAEIHNITSLDISDNGLESDLSTLIVWLSKNRSIQHLALGKNFNNMKSKNLTPVLDNLVQMIQDEDSPLQSLSLADSKLKAEVTIIINALGSNTSLTKVDISGNGMGDMGAKMLAKALQINTKLRTVIWDKNNITAQGFQDIAVAMEKNYTLRFMPIPMYDAAQALKTNPEKTEEALQKIENYLLRNHETRKYLQEQAYRLQQGIVTSTTQQMIDRICVKVQDHLNSLRACGGDAIQEDLKAAERLMRDAKNSKTLLPNLYHVGGASWAGASGLSSSPIQETLESMAGEVTRVVDEQLKDLLESMVDAAETLCPNVMRKAHIRQDLIHASTEKISIPRTFVKNVLLEQSGIDILNKISEVKLTVASFLSDRIVDEILDSLSSSHRKLANHFSRLNKSLPQREDLEVELVEEKPVKRAILTVEDLTEVERLEDLDTCMMTPKSKRKSIHSRMLRPVSRAFEMEFDLDKALEEVPIHIEDPPFPSVRQEKRSSGLISELPSEEGRRLEHFTKLRPKRNKKQQPTQAAVCTISILPQDGEQNGLMGRVDEGVDEFFTKKVTKMDCKRSSSRSSDAHELGEGDEKKKRDSRRSGFLNLIKSRSRSERPPTVLMTEELSSPKGAMRSPPVDTTRKEIKAAEHNGAPDRTEEIKTPEPLEEGPAEEAGRAERSDSRGSPQGGRRYVQVMGSGLLAEMKAKQERRAACAQKKLGNDVISQDPSSPVSCNTERLEGGATVPKLQPGLPEARFGSGTPEKNAKAEPRVDGGCRSRSSSSMPTSPKPLLQSPKPSPSARPSIPQKPRTASRPEDTPDSPSGPSSPKVALLPPILKKVSSDKERDGQNSSQSSPRSFSQEASRRSWGPAQEYQEQKQRSSGKDGHQGSKCSDSGEEAEKEFIFV
affinity for barbed end-bound CP lower than for free CP ([2]; ref 23): 10- to 100 fold
affinity for barbed end-bound CP lower than for free CP ([2]; ref 29): 200 fold

B3: mCAH3: mCAH3 fragment, mouse CARMIL residues 965-1038 (protein, UniProt Q6EDY6 965-1038, looked up, fragment)
chain: VRQEKRSSGLISELPSEEGRRLEHFTKLRPKRNKKQQPTQAAVCTISILPQDGEQNGLMGRVDEGVDEFFTKKV
Kd [3]: ~1 nM

More lines, main results first:

kon [1]: 230000 M⁻¹ s⁻¹
koff ([1]; pH 7.0): 0.019 s⁻¹
B1: GST-CA76: GST fusion of mouse CARMIL residues 962–1037 (protein)
chain: FPSVRQEKRSSGLISELPSEEGRRLEHFTKLRPKRNKKQQPTQAAVCTISILPQDGEQNGLMGRVDEGVDEFFTKK
modifications: left off: GST, end not stated, kept

koff ([1]; pH 7.0): >0.1 s⁻¹
KD (in words) ([1]; SPR, pH 7.0): micromolar range
B4: GST-CA63: GST fusion of mouse CARMIL residues 962–1024 (protein)
chain: FPSVRQEKRSSGLISELPSEEGRRLEHFTKLRPKRNKKQQPTQAAVCTISILPQDGEQNGLMG
modifications: left off: GST, end not stated, kept

koff [4]: >0.1 s⁻¹
Kon [5]: 460000 M⁻¹ s⁻¹
koff [5]: 0.0046 s⁻¹
koff [6]: >0.1 s⁻¹
koff [7]: >0.1 s⁻¹
kon [1]: 1.6e+06 M⁻¹ s⁻¹
koff ([1]; pH 7.0): 0.0052 s⁻¹
B5: GST-CA92: GST fusion of mouse CARMIL residues 962–1053 (protein)
chain: FPSVRQEKRSSGLISELPSEEGRRLEHFTKLRPKRNKKQQPTQAAVCTISILPQDGEQNGLMGRVDEGVDEFFTKKVTKMDCKRSSSRSSDA
modifications: left off: GST, end not stated, kept
CP inhibitory activity of GST-CARMIL constructs [8]: strongest CP inhibitory effect
